In patent publication US20240263208A1, “CYTOCHROME P450 ENZYME” (HYPHA DISCOVERY LTD., priority 2021, published 2024):
Residue numbers refer to the chain shown, from its start. In names and notes the source's numbering stands. Each block holds one molecule with its values, some of them ahead of it.

Columns and labels:
Assay type in all cases: biochemical
[1] = Oxidase activity testing, lyophilised recombinant P450/ferredoxin SeuF08/ferredoxin reductase SCF15A against ambroxide; conditions: for +16 Da (1.50 min) 253 m/z / +16 Da (1.60 min) 253 m/z / +16 Da (2.04 min) 253 m/z: oxidised ambroxide product; for +16 Da (1.50 min) 253 m/z / +16 Da (1.60 min) 253 m/z / +16 Da (2.04 min) 253 m/z / Ambroxide (2.22 min) 237 m/z: relative MS peak area; for reaction products from ambroxide (in words): products at 1.50, 1.61 and 2.04 minutes; for Ambroxide (2.22 min) 237 m/z: remaining substrate, 0.1 mg/ml ambroxide, 27° C., 16-20 hours; for Average % conversion: substrate ambroxide, relative MS peak areas
Method: (§1) Lyophilised material of recombinant P450, ferredoxin and ferredoxin reductase proteins was made as described in Example 4 and reconstituted in high purity water to the original volume. Biocatalysis was performed with shaking incubation at 27° C. in the following conditions: 100 mM potassium phosphate pH 8.0, 5 mM MgCl2 (both present in the reconstituted enzyme preparation) and 0.1 mg/ml substrate compound such as ambroxide (Sigma-Aldrich, UK), carbamazepine (Sigma-Aldrich, UK), diclofenac (Sigma-Aldrich, UK), tivantinib (MedChemtronica, Sweden), clarithromycin (Tokyo Chemical Industry, Japan), sclareol (Sigma-Aldrich, UK), celecoxib (LC Laboratories, USA), buparvaquone (Sigma-Aldrich, UK), BIRB796 (MedChemExpress, USA), vanoxerine (CiVentiChem, USA), valsartan (Tokyo Chemical Industry, Japan), ruxolitinib (LC Laboratories, USA), perindopril (Selleckchem, USA), solifenacin (Key Organics, UK), 7-ethoxycoumarin (Tokyo Chemical Industry, Japan), tofacitinib (LC Laboratories, USA), ebastine (Key Organics, UK), efavirenz (Key Organics, UK), propanalol (Sigma-Aldrich, UK) and tolbutamide (Key Organics, UK).
(§2) Concentrations of P450, ferredoxin and ferredoxin reductase were as extracted (Example 4). Reactions were initiated by addition of 10× stock of cofactor mixture (50 mM G6P, 10 mM NADP+, 10 UN/ml G6PDH) to provide a final volume of e.g., 10 μl to 90 μl for 100 μl total reaction volumes. After 16-20 hours, reactions were extracted with an equal volume of acetonitrile, centrifuged to remove precipitated proteins and conversion assessed by UPLC-MS analysis.
(§3) UPLC Data were Obtained as Follows: • Column: Acquity UPLC BEH Shield RP18 1.7 μm 2.1 mm i.d. 50 mm length • Solvents: H2O, B: Acetonitrile, both with 0.1% Formic acid • Flow rate: 1.0 ml/min • Detector: Waters Acquity UPLC PDA (UV-Vis detection) and Waters Acquity UPLC QDA (MS)
(§4) To confirm the identities of reaction products where known, their chromatographic retention time, mass and ultraviolet spectra were compared with those of authentic metabolite standards.
Representative results for the % conversions of ambroxide to oxidised (+16 Da) products for single point mutants at position T109 are shown in Table 2 below.

[2] = Oxidase activity testing against sclareol; conditions: substrate Sclareol, UPLC-MS UV or MS peak areas
Method: as §1, §2, §3
(§5) Representative results for the % conversions of various substrates to products by enzymes with mutations at position T109 or L198 and double mutants at T109 and 1129/L198 are shown in Table 4 below.

[3] = Oxidase activity testing against celecoxib; conditions: substrate Celecoxib
Method: as §1, §2, §3, §5

[4] = Oxidase activity testing against buparvaquone; conditions: substrate Buparvaquone
Method: as §1, §2, §3, §5

[5] = Oxidase activity testing against BIRB796; conditions: substrate BIRB796
Method: as §1, §2, §3, §5

[6] = Oxidase activity testing against vanoxerine; conditions: substrate Vanoxerine
Method: as §1, §2, §3, §5

[7] = Oxidase activity testing against valsartan; conditions: substrate Valsartan
Method: as §1, §2, §3, §5

[8] = Oxidase activity testing against ruxolitinib; conditions: substrate Ruxolitinib
Method: as §1, §2, §3, §5

[9] = Oxidase activity testing against perindopril; conditions: substrate Perindopril
Method: as §1, §2, §3, §5

[10] = Oxidase activity testing against solifenacin; conditions: substrate Solifenacin
Method: as §1, §2, §3, §5

[11] = Oxidase activity testing against 7-ethoxycoumarin; conditions: substrate 7-ethoxycoumarin
Method: as §1, §2, §3, §5

[12] = Oxidase activity testing against tofacitinib; conditions: substrate Tofacitinib
Method: as §1, §2, §3, §5

[13] = Oxidase activity testing against ebastine; conditions: substrate Ebastine
Method: as §1, §2, §3, §5

[14] = Oxidase activity testing against efavirenz; conditions: substrate Efavirenz
Method: as §1, §2, §3, §5

[15] = Oxidase activity testing against clarithromycin; conditions: substrate Clarithromycin
Method: as §1, §2, §3, §5

[16] = Oxidase activity testing against propanalol; conditions: substrate Propanalol
Method: as §1, §2, §3, §5

[17] = Oxidase activity testing against tolbutamide; conditions: for Average % conversion: substrate Tolbutamide
Method: as §1, §2, §3, §5

[18] = Oxidase activity testing against carbamazepine; conditions: for +16 Da (1.18 min) 253 m/z: 2-hydroxycarbamazepine; for +16 Da (1.18 min) 253 m/z / +16 Da (1.14 min) 253 m/z / Parent (1.31 min) 237 m/z: relative MS peak area; for +16 Da (1.14 min) 253 m/z: carbamazepine epoxide; for reaction products from carbamazepine (in words): new product at 1.18 minutes identified as 2-hydroxycarbamazepine, epoxide at 1.14 minutes; for Parent (1.31 min) 237 m/z: remaining carbamazepine, 0.1 mg/ml, 27° C., 16-20 hours; for Average % conversion: substrate carbamazepine, relative MS peak areas
Method: as §1, §2, §3, §4
Representative results for the % conversions of carbamazepine to oxidised (+16 Da) products for single point mutants at position L198 are shown in Table 3 below.

B1: SeuC10M25: P450SeuC10 with T109F mutation, SEQ ID NO: 54 (protein)
chain: MKIGTTHLTRLRGLSMTELTDITGPAAQAETVAFPQDRTCPYHPPTGYDPLRDGRPLSRVTLYDGREVWLVTAQATARALLADPRLSTDRRRDGFPVPTPRFAAGRDRFLALLGLDDPEHHRQRRLLIPSFTLKRATAQRPWIQRIVDELLDAMIARGPVADLVSAFALPVPSMVICELLGVPYADHEFFEEQSRRLLRGPTGADTTDARDRLEAYLGDLIDAKAKEAEPGDGILDDLVHNRLRAGELDRSVLVSLAVILLVAGHETTANMISLGTYTLLQHPERLAELRADPSLLPAVVEELLRMLSIAEGLQRLALEDIEIDGITIRAGEGVLFSTSVINRDTAVYEDPDDLDFHRADRHHVAFGFGIHQCLGQNLARAELEIALGSLFTRLPGLRLAAPAEEIPFKPGDTVQGMLELPVTW
modifications: SeuC10M25
+16 Da (1.50 min) 253 m/z [1]: 52.0%
+16 Da (1.60 min) 253 m/z [1]: 15.2%
+16 Da (2.04 min) 253 m/z [1]: 13.9%
reaction products from ambroxide (in words) [1]: highest yields of the products at 1.61 and 2.04 minutes
Ambroxide (2.22 min) 237 m/z [1]: 18.9%
Average % conversion [1]: 81.1%
Average % conversion ([2]; Batch 1): 55.7%
Average % conversion ([3]; Batch 1): 10.4%
Average % conversion ([4]; Batch 1): 19.4%
Average % conversion ([5]; Batch 1): 13.9%
Average % conversion ([6]; Batch 1): 58%
Average % conversion ([7]; Batch 1): 15.5%
Average % conversion ([8]; Batch 1): 79.8%
Average % conversion ([9]; Batch 1): 23.5%
Average % conversion ([10]; Batch 1): 2.9%
Average % conversion ([11]; Batch 1): 17.5%
Average % conversion ([12]; Batch 1): 21.4%
Average % conversion ([13]; Batch 1): 12.7%
Average % conversion ([14]; Batch 1): 1.5%
Average % conversion ([15]; Batch 1): 0%
Average % conversion ([16]; Batch 1): 0%
Average % conversion ([17]; Batch 1): 28.2%

+16 Da (1.18 min) 253 m/z [18]: 0.0%
+16 Da (1.14 min) 253 m/z [18]: 43.6%
Parent (1.31 min) 237 m/z [18]: 56.4%
B2: SeuC10: native CYP450 from Streptomyces eurythermus NRRL 2539, SEQ ID NO: 2 (protein, listed as Streptomyces eurythermus)
chain: B1 chain with F109T
+16 Da (1.50 min) 253 m/z [1]: 72.2%
+16 Da (1.60 min) 253 m/z [1]: 5.0%
+16 Da (2.04 min) 253 m/z [1]: 0.0%
reaction products from ambroxide (in words) [1]: produce the product at 1.50 as the major product
Ambroxide (2.22 min) 237 m/z [1]: 22.8%
Average % conversion [1]: 77.2%
reaction products from carbamazepine (in words) [18]: carbamazepine epoxide as the only reaction product
Average % conversion [18]: 43.6%
Average % conversion ([2]; Batch 1): 38.5%
Average % conversion ([2]; Batch 2): 35.5%
Average % conversion ([3]; Batch 1): 29.4%
Average % conversion ([3]; Batch 2): 22.2%
Average % conversion ([4]; Batch 1): 23.5%
Average % conversion ([4]; Batch 2): 32.9%
Average % conversion ([5]; Batch 1): 83.1%
Average % conversion ([5]; Batch 2): 78.8%
Average % conversion ([6]; Batch 1): 75.8%
Average % conversion ([6]; Batch 2): 65.8%
Average % conversion ([7]; Batch 1): 20.1%
Average % conversion ([7]; Batch 2): 20.8%
Average % conversion ([8]; Batch 1): 80.9%
Average % conversion ([8]; Batch 2): 98.6%
Average % conversion ([9]; Batch 1): 30.9%
Average % conversion ([9]; Batch 2): 32.7%
Average % conversion ([10]; Batch 1): 5.3%
Average % conversion ([10]; Batch 2): 7.2%
Average % conversion ([11]; Batch 1): 22.9%
Average % conversion ([11]; Batch 2): 23.3%
Average % conversion ([12]; Batch 1): 36.7%
Average % conversion ([12]; Batch 2): 51.6%
Average % conversion ([13]; Batch 1): 8.8%
Average % conversion ([13]; Batch 2): 4.5%
Average % conversion ([14]; Batch 1): 0%
Average % conversion ([14]; Batch 2): 0%
Average % conversion ([15]; Batch 1): 0%
Average % conversion ([15]; Batch 2): 0%
Average % conversion ([16]; Batch 1): 0%
Average % conversion ([16]; Batch 2): 0%
Average % conversion ([17]; Batch 1): 32.2%
Average % conversion ([17]; Batch 2): 37.7%

B3: SeuC10M2: P450SeuC10 with T109A mutation, SEQ ID NO: 8 (protein)
chain: B1 chain with F109A
modifications: SeuC10M2
+16 Da (1.50 min) 253 m/z [1]: 85.1%
+16 Da (1.60 min) 253 m/z [1]: 7.0%
+16 Da (2.04 min) 253 m/z [1]: 0.0%
Ambroxide (2.22 min) 237 m/z [1]: 6.8%
Average % conversion [1]: 93.2%
Average % conversion ([2]; Batch 1): 36.5%
Average % conversion ([3]; Batch 1): 24.7%
Average % conversion ([4]; Batch 1): 28.7%
Average % conversion ([5]; Batch 1): 29.5%
Average % conversion ([6]; Batch 1): 87.2%
Average % conversion ([7]; Batch 1): 17.6%
Average % conversion ([8]; Batch 1): 92.8%
Average % conversion ([9]; Batch 1): 30.7%
Average % conversion ([10]; Batch 1): 7.2%
Average % conversion ([11]; Batch 1): 32.4%
Average % conversion ([12]; Batch 1): 47.1%
Average % conversion ([13]; Batch 1): 6.8%
Average % conversion ([14]; Batch 1): 0.9%
Average % conversion ([15]; Batch 1): 0%
Average % conversion ([16]; Batch 1): 0%
conversion of tolbutamide compared to wild-type (in words) [17]: significantly increased conversion
Average % conversion ([17]; Batch 1): 52.3%

+16 Da (1.18 min) 253 m/z [18]: 3.5%
+16 Da (1.14 min) 253 m/z [18]: 6.8%
reaction products from carbamazepine (in words) [18]: produce a new product
Parent (1.31 min) 237 m/z [18]: 89.7%
B4: SeuC10M20: P450SeuC10 with L198W mutation, SEQ ID NO: 44 (protein)
chain: B1 chain with F109T, L198W
modifications: SeuC10M20
Average % conversion [18]: 10.3%
Average % conversion ([2]; Batch 1): 0%
Average % conversion ([3]; Batch 1): 6.9%
Average % conversion ([4]; Batch 1): 1.7%
Average % conversion ([5]; Batch 1): 45.3%
Average % conversion ([6]; Batch 1): 29.4%
Average % conversion ([7]; Batch 1): 25%
Average % conversion ([8]; Batch 1): 42.7%
Average % conversion ([9]; Batch 1): 16.5%
Average % conversion ([10]; Batch 1): 0.6%
Average % conversion ([11]; Batch 1): 11.4%
Average % conversion ([12]; Batch 1): 5.9%
Average % conversion ([13]; Batch 1): 19.2%
Average % conversion ([14]; Batch 1): 0%
Average % conversion ([15]; Batch 1): 0%
Average % conversion ([16]; Batch 1): 0%
Average % conversion ([17]; Batch 1): 13.7%

+16 Da (1.18 min) 253 m/z [18]: 3.1%
+16 Da (1.14 min) 253 m/z [18]: 42.3%
reaction products from carbamazepine (in words) [18]: produce a new product
Parent (1.31 min) 237 m/z [18]: 54.6%
B5: SeuC10M13: P450SeuC10 with L198F mutation, SEQ ID NO: 30 (protein)
chain: B1 chain with F109T, L198F
modifications: SeuC10M13
Average % conversion [18]: 45.4%
Average % conversion ([2]; Batch 1): 41.3%
Average % conversion ([3]; Batch 1): 26.8%
Average % conversion ([4]; Batch 1): 39.1%
Average % conversion ([5]; Batch 1): 54.6%
Average % conversion ([6]; Batch 1): 29.4%
Average % conversion ([7]; Batch 1): 12%
Average % conversion ([8]; Batch 1): 98.1%
Average % conversion ([9]; Batch 1): 38.2%
Average % conversion ([10]; Batch 1): 0.8%
Average % conversion ([11]; Batch 1): 31.2%
Average % conversion ([12]; Batch 1): 32.2%
Average % conversion ([13]; Batch 1): 14.7%
Average % conversion ([14]; Batch 1): 0%
Average % conversion ([15]; Batch 1): 0%
Average % conversion ([16]; Batch 1): 0%
Average % conversion ([17]; Batch 1): 27.9%
